Measurements as given in a protein production outcome set (Wang et al. 2014).

Experiment: label from the status in PepcDB records

| Sequence | protein production |
| --- | --- |
| MFFLLLTPFNAAASETNSDDATADAKNLSGTNAADTVVSQIIGASVYIEGEIYNNEYATISVTTKNEGDKSSEGHIIVAFPNNEEILSKEGSGDRVDIYPSGSSIETKDGTKIDSSEYLFVDLVKYDWETGKNETLNLKVKPNKGSEEIVYLVRAELMNDATGDYERYPGILSESSDVDQQGWYVYNNSFGVSGDPDLMIEDISWEPENPHENENVTFKVTLKNVGLASSGNCSVKCYLDGNEISFSTVSGLEADSTTSFTFNWVPTSSGSMDLKVVVDSEGQFVEFTEENNEKTGIFKVISYTNSSSPSSPSPGSGSSSSSSSSGGGAGGSPEPASNVEIKELAQQFVSNGNHAKFIFAKNVTSIAYIEFDPKKTVGKTTTIVETLKGKSTLVTELPTGKVYKNTNIWVGNEGTASSENIENAVVGFKVEKTWINSNGVDSSSVKLWAFEDEKWVELPTSQTDEDEDYVYYEADTPGFASFSIMALYPEENTEGTSLPLGSYVEDKDTKAVSETSEEESEVVDSEAGENNSGSMKKGLLAIGMLAAVILAGYVISRKQD | failed |
| MFFLSDHDTLISSIEAIGASFAVFEFDPQSVAFELVSCNSRYEDLMGYSSAKALGQPLTTIFPRYIHNPLKEAFIHCKNERIALETEIVLDYKGQERCWRSIVSPIVNSADEKFRIIQTCVEITEKKVLEKQLNLSMKRFEAVVNNAYDGIITIDEQQNVKLFNEAAQSMFGYSEQEIMGQPLTKLLPEKYQAKHHGYVEGFKRSQVDSRPMQTRAAVQGLRKDGSEFAIEVTISKIRIADNVEFTAVIRDISEKNQLLEELILSSRRDPLTELYNRRYFTELLHSEITRSRRFKRGFSLLMLDIDHFKSINDRYGHACGDAALIAFSKAVTNSIREVDTICRWGGEEFLVLLPEIPKVTAMVVAEKIRKNIENLETIYEGDLIKVTVSIGLEYFSGDAIEMSSMINKVDQILYRAKDTGRNKISTEI | failed |
| MFFSKLFRKDAASCLEKGEKLLAAGRFAEARLSLEDALERLDAHSPEGATTAAVIREKMVVAGNRLAEMNLQEAEHCLKSGEFAKAEEHLNLTLDLADDVTIRDKAVKSFALLEKQIPHVHHHEKKGGCGGCGGSTSQHSENIELEDDGLNDMDRFELLVRPLPGDLPERYADLGEEFAGGYLAAHGGDQMTAEKVFERLLASGESDILLYELAILSHQGGDGRRCETLLRRALALNDTNPLCNLSLVQLLTENGRFTEAVPLLERMVERDILPDQAGMFLGEIYRVQGESDRAIAQFSQLLSTPLKREAAERLVGLLETTGRSQEAALVAKQYLKGCC | failed |
| MFGAKKNNTKIIEQLEKKCNGLGDILRSIGNTMAVIEFTTDGVILEANQNFLTTMKYSLSEIKGKHHSMFCLPEVVNSSAYSDFWKDLRDGKARSGLFRRIAKGGIDVYLEANYLPISDNNGYVYKIIKFANDITQRHYEMLDLRNTIAAANRSMAIIEFKPDGTIITANENFLRAMDFNIDEIKGKHHSMFCDSNYRHSKDYVQFWEDLREGKFQSGKYIRYGRNNKKVYLEASYNPVKNDDGKIYKVIKFATDISEQVKKDQEKLRLISELAEKNDNLTQDGDRVIENTVSNVQNIADMMSQSSNLVSSLNQQSDEIKSIIQTISDIADQTNLLALNAAIEAARAGEHGRGFAVVADEVRNLAERTGHSVNEITTTINSIRNVTSQVVESIKSGLEDVNQSVELAKEARECMEKIRESSAEVAKAMS | failed |
| MFGLEAIDLARIQFAFTVSFHIIFPAITIGLASYLAVLEGLWLKTNEEVYRDLYHFWSKIFAVNFGMGVVSGLVMAYQFGTNWSHFSDFAGSITGPLLTYEVLTAFFLEAGFLGVMLFGWNRVGPGLHFFATVMVAIGTLISTFWILASNSWMQTPQGFEIVDGRVIPVDWLAVIFNPSFPYRLLHMSVAAFLATAFFVGASAAWHLLRGRDNPAIRKMLSMAMWMALIVAPVQALIGDAHGLNTLEHQPAKIAAMEGHWDNSSGEPTPLILFGWPDMQREETRFKVEIPVLGSLILKHSLTEPIPALKDFPPEDRPNSTVVFWSFRIMAGLGMLMILVGVWSLWLRWRGQDKLFNSKAFLRLTLLMGPSGLIAILAGWFTTEMGRQPWVVYGLMRTADASSAQSVTQMSLTLLTFVVVYFSLFGVGIGYMMRLVRKGPVTHEGRETNPGGAGQKRTPARPLSAAGEGFDEEHDGHAQAADRDQDKRN | failed |
| MFGLVDAVSFYARAEKVFDPSIRHKPVVVLTNNDGCICAVCPIARQLGVPKFVPYFKVKSFLAKHGVVVRSSNYELYADLSERMMNVIARYSDNHYVYSIDESFLHFKNFSCVDNWHEYGHVIRKAVWRETRLPVGVGFGATLTLAKAANHASKKLSGFDGVAVIDDKASRKEILSRMSLTEVWGIGSKLGKRLSILGLKNGWDLANQSPKAMRGQFGVVVERTVNELNGMPCLQWDEIGQDKQEIFSTRSFGQRVTDGHALKAALSSHASIVGAKVRRQGSLIKRLVIFASSSPHDDSYYKKSVIYEFPIATDNILKLVGAISYVFDNIYRQGVSFYRCGVGGVELENSQFQQQDMFSLSVNNPPLMKCYDQINHRYGRGAVEVAIAEKNEKWAMRRNFLSPRSTSNWSEIPKINCLEHHHHHH | failed |
| MFHFSLSPRRTGRGARPRARLGAMLALAFLAGGLTAGPGNAAEGAGATAERQYCACMALARSRPDQAFEKAGQWKALGGGVPARHCEAVALLGLKEYGEAARRLEALAEDVKLARGLRVDLLTQAGQAWLAVGDLSRAYANQTTALQLAGARAQSGAPALSSVLPDLYIDRAVTLAQAGRDDEATTDLTKALALQPASVTALVLRASAQRRQGRLTAARADAEAAVKRAPNDAEARLERGDVRLALGDRDGARADWLKVLELAPREGAADAARARIETLDLKVR | failed |
| MFIGGAIISFLFLFGYMWKEAHSNRIRHVTLSFPHFPDNGPPLTIFFISDIHRRSVSCRMLETVKGKADLVVIGGDLAEKGVPAARVRENVRRLQTVAPVYFVWGNNDDEVDYDLQSLLEEERVYVLKNKAEVWEHGGVPIALIGVGDVSRKEADIARALEHVPPESFRILACHNPAIIARLEDEQHISLVLSGHTHGGQIRLFSFGLYEKGGLKWHGNTALFTSNGYGTTGVPLRLGAPAETHLIKIVPGKLATEKKCLSKTGKTMLEHHHHHH | failed |
| MFKALLPQSKQKLQHAKYFAKKMHQASASDQLQSHWHLQQWWILIAGFFLFGSVLVFAFTRPISSTKIEAEYLKEVDPQIYTLLNGEMLTPPPEVDESLISAAIVEANQLEQQYASQHSETNAPSASENLMHHNLIDTQFVDRKWDKMNPRYKQRLLMVFKIMKERYGYELVLLEGYRSPERQNLLSGNPNTTRARGYQSYHQFGLAADVAFKRNGKVVISERDPWAMRGYQLYGEVAESVGLTWGGRWKSIQDYGHTEYRMPGLRKTKEMAEQLIAEGQLTANAAS | failed |
| MFKASHVLQGEDQTRSAAEFFPVISANYAVDEEAYLGELLQLADPGPDGIEAIRRNARALIETVRSRDNAVDTLDALLRQYSLDTQEGLMLMCLAEALLRVPDAATADALIRDKLSAADWQRHLGQSDNVLVNFAAWGLVMTGKVVNIDERTDGRAPSVISRLVQRSGEPVIRAAMNQAMKLMGKQFVLGRTISEALKNGRPCREQGYTYSFDMLGEAALTAADAEKYMADYRQAIDTVGAEPQVGPGPRPSISIKLSALHPRYEVAQRERVLSELFANVLELAVRARKLNVGITIDAEEADRLELSLELYEKLMRDPAIAGWGEFGLVIQAYSKRCLPVLVWLTLLGRELGARIPLRLVKGAYWDSEIKQCQVQGADGYPVYTRKEGTDTSYLACARYLLSEHTRGVIYPQFASHNAHTVTAILALADEARAAGGEERDFEFQRLHGMGDALYDTVIEKYRRNVRIYAPVGAHKDLLPYLVRRLLENGANSSFVHKLVDPRVPVETLIQHPVTQLRQFKTLANDRIPLPQAIFGAGRKNSQGINMNIQNQWNELELAYKPHLTRQWQAAPIVNGEKLSGPAHEVRCPYDLERLVGSVQYASAEQAGKALDVLQAAWPRWSATPVDERAGILERLADLLEAQRGELMALCTLEAGKSLQDGIDEIREAVDFCRYYAQQARQRLVREELRGPTGERNELFYEGRGIFACVSPWNFPLAIFLGQISAALVAGNTVLAKPAEQTSLIAARTVELMFEAGLPKDVIALLPGDGATLGGVFCRDARVAGVAFTGSTDTARIINRQLAEKPGAIATLIAETGGQNAMIVDSTALPEQVIKDAVQSAFTSAGQRCSALRVMYVQQDIAERVIELLKGAMAELKVGPTEVRVSDVGPVIDAEAKAGLEQHIAALKAAGKLIAETKVPGNLNGHFVAPVAFEISGIDELKKENFGPVLHVVRYAAQDLEKVVQAINATGFGLTMGVHSRNEETARRIEELARVGNLYINRNQIGAVVGVQPFGGHGLSGTGPKAGGPNYLLRFVSERTTSVNTTAVGGNA | failed |
| MFKHCLICTDFSDGLQRLAGFVEELSLSGITKLIFLHTVSVWEDEHIADVDESKLKEAKTYLESLVGQVPPGIEVKVEVSSVRYVDLVNQLVEQEAIDLIINGMPVRSNLESKLFGSHTLSLAKSTKVPVMILRPQLVSTYTVEEMALRCQHLWRNLLVPYDASSAGNYLIERLKSALEKAPPGKVESCYFLSILEDGMRRPELLEIRRQEAEAKLAEIKQQFSPLVPNIITEVRHGSPVQEILDTAFVNDITAIAVASRRATLLDWTVPSLTDSILNRSWFPLLFFSPKG | failed |
| MFKIYNNGNPIPMGYSQAVENNVQITNFALFSAAAIGVELCLFDEQNQETRLPMVRTENVWHLAVTGVKTGTEYAFRIHGEFANPQKLILDPYAKAVNGKPDLSSEESRSWFLLSDNRDNAHLAPRAVVIS | failed |
| MFKKGVVPSQGLRIIIVGCGKVGRTLVEQLGKEGHDITIIDKNRERISQVSNIYDVMGIAGNGASYKILQEAGIDDADLIIAVTGSDELNLLCCTIATQVGNCAAIARVRTPEYSQEAKYLRDKLGLALIINPELEAAIEMAHILHLPSSLEVTNFAHGQAQLIKYEIPEGSILDGTKLMDLGTRHHANILIGAVERDDEVTIPSGDFVLRKGDKLSFVGERRHTKEFFSHIGVNTHSVKNTLIIGGGKAAYYLAKQLISRGIKVKIIENSFERCEELSILLPDAVIINGDGTEQALLKEEGIETCQSFVPLTGIDEENIMLTLYAKQVSNAKVITKLNRITFTNVINSLDLGSVISPKYITSEAIIAYVRAKKNSMNCNIETLYHMYDSRVEAIEFFVSENSNVTDIPLRDLKLKKHLLICFINRNGKIIIPTGNDCIQKNDTVMIITTNTGFTNLQDIME | failed |
| MFKKLLHSLFAGLTFMAAVAAVPAHAQEADAQTTVKTAVDDVLATIKGDSDLRSGNMQKVFQLVDQKIVPRADFKRTTQIAMGRFWSQATPEQQQQIQDGFKTLLVRTYAGALANVRNQTVSYKPFRAAADDTDVVVRSTVNNNGEPVALDYRMEKSANGWKVYDINISGLWLSETYKNQFAEVISKRGGVSGLVQFLDERNAQLAKGPAKLEHHHHHH | not failed |
